The supplement of paper PMC9732359
± gives the uncertainty stated by the source.

Assay: protein stability index of a GFP-peptide fusion (yeast GPS) (PSI 1-4); higher = more stable; sorted into four equal gates, so the index is relative within each strain
Settings: pdr5∆
Summary of the method: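 The protein stability index combines read frequencies across sorting gates, each weighted by its gate number and then summed. To obtain those frequencies, a pooled yeast library of GFP fusions to tiled 17-residue yeast protein peptides, on a plasmid also expressing Cherry, was grown to mid-log phase in leucine-free medium. The cells were sorted into four equal gates by GFP/Cherry ratio before plasmid amplification by PCR and Illumina sequencing.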

Sequence | protein stability index
YDLLISTLTTISGNPPL [SRB5] | 2.3 ± 0.045
YDNGQVFPSSILDITDE [RPP0] | 1.79 ± 0.077
YDRATLTQLLSMMSDGI [RPO31] | 2.44 ± 0.053
YDVLHDVFTINPHQKDQ [YML103C/NUP188] | 2.15 ± 0.098
YEGMKLGNHAITIDSVV [YMR129W/POM152] | 1.36 ± 0.12
YELEFDTPTSGKHNLTI [BRR2] | 3.04 ± 0.076

Same assay, conditions: san1∆

Sequence | protein stability index
VKPLESSAKRSKNTAVS [SRP72] | 2.21 ± 0.096
VKQEDMPFNDQGIVPDI [RET1] | 2.91 ± 0.064
VKSLLSEEKIRDYSKEI [SIR4] | 2.46 ± 0.14
VKTPKKTKYILQRPTAT [CSN12] | 2.6 ± 0.079
VKVLAATNRVDVLDPAL [RPT5] | 3.02 ± 0.075
VLAKRMANLSQIYTQRA [SCL1] | 2.34 ± 0.12
VLARISPELSLQRHLSL [RRP43] | 2.02 ± 0.093
VLESIVARTFWASKYGQ [BRR2] | 2.47 ± 0.096
VLIANDVDPIELVVFLP [RPL8A] | 3.13 ± 0.087
VLIAQERSAGNIVQVFK [RPB2] | 2.97 ± 0.087
VLIKMVKMLRDNPGYKA [SIR3] | 3.47 ± 0.039
VLITDHIEKLENEFVVL [CDC53] | 2.1 ± 0.087
VLITSYEMVIREKNALK [ISW2] | 2.37 ± 0.045
VLKFLTDLEKKHLWDQK [RPC17] | 3.18 ± 0.14
VLLHGASLGIGLAAMGS [RPN2] | 1.93 ± 0.072
VLMETKNTQSPQTPLVE [SNU114] | 2.67 ± 0.087
VLMGKNTMVRRAIRGFL [RPP0] | 3.34 ± 0.17
VLQNVFKLVSTPSSNSN [MED1] | 1.5 ± 0.072
VLTYPEKVTRYNRHKLQ [RPO31] | 2.32 ± 0.052
VMKDIYKVENVTLYWNN [ESC2] | 1.47 ± 0.11
VMSIESLVEVVFYRGMT [FAS1] | 1.39 ± 0.12
VNDRYQIPTPNNTVDPG [CSI1] | 1.71 ± 0.13
VNETEAILYTKPGHVLQ [YGR119C/NUP57] | 2.75 ± 0.13

Sequence | protein stability index
VNGAKNLVVSGPPQSLY [FAS1] | 2.03 ± 0.088
VNLPGGILRRKSESDEL [RRP4] | 2.88 ± 0.1
VPRLFDLVKPKNPKFSN [SMC4] | 2.45 ± 0.091
VPVALKGQGPFTLTYDI [YMR129W/POM152] | 2.83 ± 0.069
VPVRSFKGHSHIVQDCT [ASC1] | 2.91 ± 0.081
VQDALLTNQLYKNHELL [SNF2] | 3.08 ± 0.044
VQGKNLLTNFHGMDFTT [RPS1A] | 3.22 ± 0.045
VREHYLRSDIPCLSRSC [DIS3] | 2.59 ± 0.051
VRELVEKIDGMDVDSVK [RPC82] | 3.34 ± 0.11
VRIPPDQFHRDTISAIT [RPC25] | 2.02 ± 0.064
VRNACKRLIAHDWLNAL [YCG1] | 2.83 ± 0.075
VRQLYKGKKYQPKDLRA [RPL35A] | 2.59 ± 0.098
VRSLLEVVQTGAKNIEI [PRE6] | 3.06 ± 0.074
VRTNRFDIIEESFKGLQ [ECM29] | 2.18 ± 0.12
VRYEEKRELKQLLEKAP [BRR2] | 1.89 ± 0.18
VRYTTSVMPPNEVYSAY [DLS1] | 2.48 ± 0.059
VSANTPKSLNSNININV [SWI1] | 2.84 ± 0.12
VSIKDSTGCVVGLSQPD [YMR129W/POM152] | 2.05 ± 0.066
VSIVKLDTQLITLLPSS [SNF12] | 1.95 ± 0.084
VSKFYDKINQLSVVKYL [RPN9] | 1.31 ± 0.11
VSKMEKAEKTLKSTKHS [SMC4] | 2.33 ± 0.042
VSLSQLLFIVGQVAIKT [YCS4] | 1.71 ± 0.088
VSNPLIQRFFALHYLVP [COB] | 2.32 ± 0.072

Sequence | protein stability index
VSPTVGKLFSDIKVLKR [YIL149C/MLP2] | 3.11 ± 0.06
VSTSSGAAANNNDQKRQ [YJL041W/NSP1] | 3.27 ± 0.035
VTADTVILFDSDWNPQA [ISW2] | 2.81 ± 0.089
VTAEDFKQAKERVMKNK [RPT2] | 3.52 ± 0.11
VTALEVLSLGRPNLPTH [RGR1] | 2.18 ± 0.14
VTIIEPKEEEPILAPSV [RPS3] | 3.01 ± 0.14
VTIWYRAPELLLGARHY [SSN3] | 2.07 ± 0.15
VTKITDMLLHKYYIVSS [SRB8] | 1.65 ± 0.15
VTKWTNQLTESASHFEQ [YJL041W/NSP1] | 3.16 ± 0.091
VTLASILTTAVGLVSPS [RPN1] | 2.25 ± 0.19
VTLRKSLYTNTSRKALE [RPL3] | 1.78 ± 0.078
VTNDDKSDDDDHTVDEI [SRB8] | 3.07 ± 0.094
VTRFDEKQIEELLDNCI [SRB6] | 3.21 ± 0.16
VTVFLFMLILALFVFYS [COB] | 2.27 ± 0.057
VVARRSNSANVSSPESE [ITC1] | 3.25 ± 0.036
VVDRESDIPKTTVQVAE [PRE4] | 2.8 ± 0.13
VVEACGNIVAELAQDPQ [YCS4] | 3.04 ± 0.1
VVRRRFRGNISQPKIGY [RPL32] | 2.9 ± 0.067
VVSCSQHGFEVQVGPMK [RPB7] | 3.02 ± 0.089
VVVKNWGAETDELSMIM [RPS12] | 3.23 ± 0.087
VYANNPEVSDDGGLEEE [SIR3] | 2.52 ± 0.14
VYKDNLSFIQVRIDLGT [RPO31] | 1.79 ± 0.1
VYLTAVLEYLAAEILEL [HTA1] | 2.21 ± 0.09

Sequence | protein stability index
VYSVDPLEKITDAYLDQ [PRP8] | 2.98 ± 0.1
WALKSSLNSMTNAKLPN [RGR1] | 3.17 ± 0.052
WDLQLQEKESQIQLAES [SMC4] | 2.82 ± 0.082
WGVNLPAHTVIIKGTDV [BRR2] | 2.32 ± 0.083
WIAMRREKRDRTHFKRM [PRP8] | 2.04 ± 0.2
WKDFTVEIAFLFRAIYL [YCG1] | 2.48 ± 0.1
WKLLNQLVLRGLLSQAI [YJR042W/NUP85] | 1.28 ± 0.11
WKPNPSYDVENVNSRNQ [SRB5] | 3 ± 0.11
WLEEYHPKLIKNKSGKI [FAS1] | 1.42 ± 0.092
WLKNKFAEENITHKLTK [BRR2] | 2.85 ± 0.047
WPTTHKYPLGHFVRDLG [DIS3] | 3.07 ± 0.08
WREIIEKVRDYENSISK [IRR1] | 2.39 ± 0.061
WRKWNVKVNHNEKRYAT [RPL4A] | 1.59 ± 0.13
WRQFGNRMQISPDQMRN [GRR1] | 2.89 ± 0.11
WYQFSNSKDHKKITLQL [SIN4] | 2.47 ± 0.22
YDDFIYLSDLKQFFQMT [PCI8] | 2.61 ± 0.084
YDLLISTLTTISGNPPL [SRB5] | 1.77 ± 0.07
YDNGQVFPSSILDITDE [RPP0] | 2.42 ± 0.093
YDRATLTQLLSMMSDGI [RPO31] | 2.56 ± 0.054
YDVLHDVFTINPHQKDQ [YML103C/NUP188] | 2.12 ± 0.13
YEGMKLGNHAITIDSVV [YMR129W/POM152] | 1.64 ± 0.16
YELEFDTPTSGKHNLTI [BRR2] | 3.18 ± 0.061
